Results on one protein are retold here after publication doi:10.1101/2023.02.26.530074, “Atomic resolution structure of a DNA-binding histone protein from the bacterium Bdellovibrio bacteriovorus” (bioRxiv, 2023).

The series concerns the molecule itself. Briefly: SEC-MALS; HBb at 3 mg/mL, Superdex 75 Increase 10/300 GL, 20 mM Tris pH 8.0, 150 mM NaCl, 1 M urea, 0.5 mL/min. (In general: In gel filtration, larger molecules generally elute earlier.)

B1: histone protein HBb from Bdellovibrio bacteriovorus (natural protein)
chain: MAEVLVVTSKVKKLIKEKGQMNTSAETIDVLSKAIEQLCLKGVESAKADGRKTVMARDIVIDHL
notes: HBb, histone homolog of Bdellovibrio bacteriovorus HD100, UniProt Q6MRM1; 64 amino acid residues, single histone fold domain; the gene encoding HBb was codon-optimized, synthesized and cloned into pETHis1a; In the crystal the first three and last three amino acids are not resolved; also called bacterial histone HBb; Bd0055; source: E. coli Mutant56(DE3), purified (HisTrap, TEV cleavage, second …)
Broadly, the stoichiometry N is a count of units in the complex or per binding partner. For the protein B1, the “stoichiometry N” value worked out at 2.
